Experimental findings from patent publication US20230136228A1 (LAMKAP BIO ALPHA, published 2023) are described below.

Numbering of substitutions follows the chain as printed. Names may count otherwise.

Sequences and labels used below:
B1: AB17L3-1/N (bispecific antibody, human IgG1, kappa, lambda, L234A L235A)
heavy: EVQLVESGGGLVQPGGSLKLSCAASGFTFNTYAMNWVRQAPGKGLEWVGRIRSKYNNYATYYADSVKDRFTISRDDSKNTAYLQMNSLKTEDTAVYYCVRHGNFGNSYVSWFAYWGQGTLVTVSSASTKGPSVFPLAPSSKSTSGGTAALGCLVKDYFPEPVTVSWNSGALTSGVHTFPAVLQSSGLYSLSSVVTVPSSSLGTQTYICNVNHKPSNTKVDKRVEPKSCDKTHTCPPCPAPEAAGGPSVFLFPPKPKDTLMISRTPEVTCVVVDVSHEDPEVKFNWYVDGVEVHNAKTKPREEQYNSTYRVVSVLTVLHQDWLNGKEYKCKVSNKALAAPIEKTISKAKGQPREPQVYTLPPSREEMTKNQVSLTCLVKGFYPSDIAVEWESNGQPENNYKTTPPVLDSDGSFFLYSKLTVDKSRWQQGNVFSCSVMHEALHNHYTQKSLSLSPG
light 1: EIVLTQSPATLSLSPGERATLSCRASQSVNSNLNWYQQKPGQAPRLLIYHGSNRATGIPARFSGSGSGTDFTLTISSLEPEDFAVYYCQQFDYFKEHNTFGQGTKVEIKRTVAAPSVFIFPPSDEQLKSGTASVVCLLNNFYPREAKVQWKVDNALQSGNSQESVTEQDSKDSTYSLSSTLTLSKADYEKHKVYACEVTHQGLSSPVTKSFNRGEC
light 2: QTVVTQEPSLTVSPGGTVTLTCRSSTGAVTTSNYANWFQQKPGQAPRGLIGGTNKRAPGTPARFSGSLLGGKAALTLSGAQPEDEAEYYCALWYKQRWVFGGGTKLTVLGQPKAAPSVTLFPPSSEELQANKATLVCLISDFYPGAVTVAWKADSSPVKAGVETTTPSKQSNNKYAASSYLSLTPEQWKSHRSYSCQVTHEGSTVEKTVAPTECS
notes: Kappa-lambda body, lead optimization wave 1
B2: AB1L3-1/N (bispecific antibody, human IgG1, kappa, lambda, L234A L235A)
heavy: B1 heavy
light 1: B1 light 1 with Y93L, F94R, K95H
light 2: B1 light 2
notes: Kappa-lambda body: common heavy chain (hIgG1 L234A+L235A+P329A), kappa CEA light chain AB1, lambda CD3 light chain L3-1 (1A4); also called parental KL bispecific antibody
B3: AB72L3-1/N (bispecific antibody, human IgG1, kappa, lambda, L234A L235A)
heavy: B1 heavy
light 1: B1 light 1 with G51S, S52T, A55P, T56R, H97Y
light 2: B1 light 2
notes: Kappa-lambda body, lead optimization wave 2
B4: AB73L3-1/N (bispecific antibody, human IgG1, kappa, lambda, L234A L235A)
heavy: B1 heavy
light 1: B1 light 1 with G51S, S52N, A55P, T56H, K95R, H97Y
light 2: B1 light 2
notes: as for B3
B5: AB71L3-1/N (bispecific antibody, human IgG1, kappa, lambda, L234A L235A)
heavy: B1 heavy
light 1: B1 light 1 with G51S, A55P, T56H
light 2: B1 light 2
notes: as for B3

The first experiment has as its target T1, human CEACAM6 (human, UniProt P40199 35-320).
T1 construct: whole, on cells; also called CD66c
T1 sequence (looked up): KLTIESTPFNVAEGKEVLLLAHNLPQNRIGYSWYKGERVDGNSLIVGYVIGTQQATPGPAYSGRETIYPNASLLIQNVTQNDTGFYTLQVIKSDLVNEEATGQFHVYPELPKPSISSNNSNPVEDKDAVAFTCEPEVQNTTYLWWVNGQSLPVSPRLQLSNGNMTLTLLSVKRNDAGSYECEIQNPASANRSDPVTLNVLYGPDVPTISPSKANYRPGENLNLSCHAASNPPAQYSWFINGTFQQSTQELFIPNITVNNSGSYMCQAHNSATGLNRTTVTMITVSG
The experiment can be described thus: flow cytometry, MFI on transfected PEAK cells divided by MFI on WT PEAK cells. As for the experimental part: (§1) Similarly, vectors encoding the full-length version of cyno CEACAM 5 and 6 are also used to express these proteins at the surface of PEAK and/or CHO cells. Non-transfected PEAK and/or CHO cells are used as negative control. Cells are harvested, counted, checked for viability and resuspended at 3×10⁶ cells/ml in FACS buffer (PBS 2% BSA, 0.1% NaN₃). 100 μl of the cell suspension are distributed in V-bottom 96-well plates (3×10⁵ cells/well). The supernatant is removed by centrifugation 3 minutes at 4° C., 1300 rpm and the cells incubated for 15 minutes at 4° C. with increasing concentrations of the antibody according to the invention. The antibodies carrying the anti-CEACAM5 arms to test are diluted in FACS buffer and the concentration range is 30 pM-500 nM. Cells are washed twice with cold FACS buffer and re-incubated for further 15 minutes at 4° C. with a compatible anti-human IgG secondary antibody. Cells are washed twice with cold FACS buffer and resuspended in 300 μl FACS buffer with 1:1500-diluted TOPRO-3 (Invitrogen). Fluorescence is measured using a FACSCalibur™ (BD Biosciences) or a Cytoflex Platform (Beckman Coulter). Dose-response binding curves are fitted using GraphPad Prism8 software. In the same manner, CEACAM1, CEACAM6 and other CEACAMs can be characterized.
(§2) For the bispecific antibodies AB17L3-1/N, AB71L3-1/N, AB72L3-1/N, AB73L3-1/N the MFI measured for binding to CEACAM5 transfected cells was found between 29000 and 41000 (Table 2). In contrast MFI found by using PEAK cells transfected with CEACAM 1,3,4,6,8 were found below 1000 with the only exception of a strong signal for AB72L3-1/N on CEACAM8 transfected cells. When MFI values obtained on transfected cells expressing any given CEACAM are divided by the values obtained on WT PEAK cells, “factors to PEAK WT” can be calculated (Table 3). With the exception of AB72L3-1/N, the antibodies of the invention are all specific to CEACAM5, as the “factor to PEAK WT” values are all below 2.0.
(In flow cytometry, cells or beads pass a laser one at a time.)
With B1, the “Factor to PEAK WT” value came out at 1 fold.

As for B2, the “Factor to PEAK WT” value worked out at 0.8 fold.

With B3, the “Factor to PEAK WT” value is 1.2 fold.

Regarding B4, the “Factor to PEAK WT” value stood at 1 fold.

Turning to B5, the “Factor to PEAK WT” value amounted to 1 fold.

The target in a further experiment is T2, human CEACAM4 (human, UniProt O75871 36-244).
T2 construct: whole, on cells
T2 sequence (looked up): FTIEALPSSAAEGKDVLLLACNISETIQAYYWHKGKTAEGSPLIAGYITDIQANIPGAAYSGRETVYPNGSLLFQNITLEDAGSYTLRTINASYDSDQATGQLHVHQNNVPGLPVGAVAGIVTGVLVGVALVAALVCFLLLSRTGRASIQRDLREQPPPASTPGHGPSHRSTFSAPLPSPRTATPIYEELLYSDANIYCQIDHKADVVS
The description is as above. As for the experimental part: as §1, §2
On to B1, for which the “Factor to PEAK WT” value stood at 0.8 fold.

For the molecule B2, the “Factor to PEAK WT” value came to 0.7 fold.

As for B3, the “Factor to PEAK WT” value turned out to be 0.8 fold.

B4: the “Factor to PEAK WT” value is 0.7 fold.

As to B5, the “Factor to PEAK WT” value was found to be 0.7 fold.

The target in a further experiment is T3, human CEACAM8 (human, UniProt P31997 35-320).
T3 construct: whole, on cells
T3 sequence (looked up): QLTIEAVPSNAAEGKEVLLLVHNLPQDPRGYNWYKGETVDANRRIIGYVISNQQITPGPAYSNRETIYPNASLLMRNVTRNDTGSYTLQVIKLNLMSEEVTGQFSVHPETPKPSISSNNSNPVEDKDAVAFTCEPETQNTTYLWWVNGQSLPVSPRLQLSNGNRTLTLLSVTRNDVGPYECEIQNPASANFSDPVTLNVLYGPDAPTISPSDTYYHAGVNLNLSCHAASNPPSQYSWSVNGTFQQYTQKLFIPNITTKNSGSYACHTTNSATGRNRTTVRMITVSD
The description is as above. As for the experimental part:
as §1, §2
Take B1: the “Factor to PEAK WT” value was determined as 0.8 fold.

Regarding B2, the “Factor to PEAK WT” value is 0.7 fold.

With B3, the “Factor to PEAK WT” value turned out to be 13.1 fold.

Take B4: the “Factor to PEAK WT” value came out at 0.8 fold.

As for B5, the “Factor to PEAK WT” value came to 0.9 fold.

The target in the next experiment is T4, human CEACAM3 (human, UniProt P40198 35-252).
T4 construct: whole, on cells
T4 sequence (looked up): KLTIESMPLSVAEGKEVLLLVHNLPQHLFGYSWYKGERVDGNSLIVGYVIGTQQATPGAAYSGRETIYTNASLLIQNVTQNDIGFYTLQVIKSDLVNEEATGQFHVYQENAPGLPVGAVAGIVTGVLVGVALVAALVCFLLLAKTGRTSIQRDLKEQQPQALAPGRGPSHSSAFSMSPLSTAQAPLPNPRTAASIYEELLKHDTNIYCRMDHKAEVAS
The description is as above. As for the experimental part: as §1, §2
On to B1, for which the “Factor to PEAK WT” value is 1.2 fold.

As for B2, the “Factor to PEAK WT” value was 0.8 fold.

In the case of B3, the “Factor to PEAK WT” value is 1 fold.

Take B4: the “Factor to PEAK WT” value stood at 0.9 fold.

On to B5, for which the “Factor to PEAK WT” value came to 0.8 fold.

In the next experiment the target is T5, human CEACAM5 (carcinoembryonic antigen, CEA), cell surface (human, UniProt P06731 35-685).
T5 construct: whole, on cells; also called CD66e
T5 sequence (looked up): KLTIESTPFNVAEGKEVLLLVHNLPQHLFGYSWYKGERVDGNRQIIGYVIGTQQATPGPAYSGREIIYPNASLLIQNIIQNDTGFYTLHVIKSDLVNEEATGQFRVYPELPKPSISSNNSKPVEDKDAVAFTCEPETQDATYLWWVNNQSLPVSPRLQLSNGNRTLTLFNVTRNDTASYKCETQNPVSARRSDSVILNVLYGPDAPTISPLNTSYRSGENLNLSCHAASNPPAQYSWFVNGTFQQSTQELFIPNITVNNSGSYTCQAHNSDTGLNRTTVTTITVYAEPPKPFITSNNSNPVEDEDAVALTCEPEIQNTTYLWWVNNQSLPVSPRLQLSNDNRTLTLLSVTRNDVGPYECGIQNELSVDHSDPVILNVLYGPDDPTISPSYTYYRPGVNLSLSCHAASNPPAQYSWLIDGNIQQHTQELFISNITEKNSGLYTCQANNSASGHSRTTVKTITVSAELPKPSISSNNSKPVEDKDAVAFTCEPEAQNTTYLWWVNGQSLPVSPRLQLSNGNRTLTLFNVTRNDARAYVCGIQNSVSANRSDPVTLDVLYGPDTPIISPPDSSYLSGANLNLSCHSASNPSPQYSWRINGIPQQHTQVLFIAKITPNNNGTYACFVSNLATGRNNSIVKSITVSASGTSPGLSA
The description is as above. As for the experimental part:
as §1, §2
B1: the “Factor to PEAK WT” value is 55.1 fold.

With B2, the “Factor to PEAK WT” value came to 16.8 fold.

As for B3, the “Factor to PEAK WT” value stood at 85.3 fold.

In the case of B4, the “Factor to PEAK WT” value amounted to 70.8 fold.

For B5, the “Factor to PEAK WT” value was found to be 79.7 fold.
